Series [1] in a line: Activity of Syn5 RNAP-NP (gel). In kind it is biochemical. From the text: FIG. 18 depicts gels showing expression and activity of Syn5 RNAP-NP.
(§1) The wild-type Syn5 RNA polymerase gene was modified as follows to improve expression in E. coli cells. Nucleotides in Syn5 RNA polymerase gene (No. 808-825) CCA TTG GGC ACC CGT AAG (SEQ ID NO:78) encoding Pro Leu Gly Thr Arg Lys (SEQ ID NO:79) were mutated to CCT CTT GGT ACG CGC AAG (SEQ ID NO:80) without changing the amino acids encoded, and the Syn5 promoter A TTG GGC ACC CGT AA (SEQ ID NO:81) within this region was removed (FIG. 16). Thus, when expressed in E. coli, the enzyme produced by the modified gene would not start transcription from its own gene, enabling the cells to grow much faster (FIG. 17) and yield at least 5 times more enzyme than cells expressing wild-type Syn5 RNAP.

The subject of a further series is E. coli BL21 (DE3). Nature of the series: Growth curve of E. coli expressing Syn5 RNA polymerase from wild-type or modified vector. In kind it is cell-based. The settings on record: versus vector expressing wild-type Syn5 RNAP.
Source text: FIG. 17 graphically depicts a growth curve of E. coli BL21 (DE3) expressing Syn5 RNA polymerase from wild-type (WT, Syn5 RNAP-pET24a) or modified (Syn5 RNAP-NP-pET24a) vector.
as §1
E. coli BL21(DE3) was transformed with plasmid Syn5 RNAP-NP-pET24 encoding an N-terminal His-tagged Syn5 RNA polymerase. Cells were grown at 37° C. until they reached an OD of 1.2, at which point the temperature was reduced to 25° C. and IPTG was added at final concentration of 0.5 mM. Cells were grown an additional 4 hours before collection. The purification procedure used is described in “Zhu B, Tabor S, Richardson CC. (2014) Syn5 RNA polymerase synthesizes precise run-off RNA products. […]

For series [2], the system named is template for a 2.7 knt RNA or human mitochondrial tRNA^ProUGG. Nature of the series: 2′-F-dNTP incorporation by Syn5 RNA polymerase Y564F. The series is classed as biochemical. The text has this: FIGS. 28A, 28B, 28C and 28D depict gels showing a preference for 2′-F-dC/UTP over rC/UTP by Syn5 RNAP-Y564F.
Syn5 RNA polymerases containing Y564F and/or Y574F mutation were constructed using a known PCR mutagenesis method (see Higuchi et al., Nucleic Acids Res. 16:7351-7367 (1988) hereby incorporated by reference in its entirety), expressed and purified using known methods. The wild type gene background for the mutants was also modified, with the internal Syn5 promoter removed to reduce toxicity and increase the yield of the protein when expressed in E. coli. Purified proteins were analyzed by SDS-PAGE. The mutants were used to incorporate 2′-F-dNTPs as described below.
The reaction components were incubated at 37° C. for 4 hrs. 0.4 µl of the reaction mixture was loaded onto 2% agarose gel or 10% TBE gel and stained with ethidium bromide. Results are shown in FIG. 28A, FIG. 28B, FIG. 28C and FIG. 28D. The Y564F mutation does change the recognition of the 2′-group in the nucleotide substrates by Syn5 RNA polymerase. […] See FIG. 28A lane 4 vs 3; FIG. 28B lane 9-11 vs 6; FIG. 28C lane 11-13 vs 8).

Residue numbers refer to the chain shown, from its start. Names and notes keep the numbering of the source. “Also recorded” adds a separate entry of the source.

B1: Syn5 RNAP-NP: Syn5 RNAP from modified gene (SEQ ID NO:83) with internal Syn5 promoter removed by silent mutations; same amino acids as wild-type (protein)
chain: MSFDLIARQLQRETEAAELARKRLQDARREANERSYASSNIESRKAIATFLDPIAQRIGERLFTLRRGTGAVDAAEVYKHLKNADHHHLALITMKTALDVLGKDPEPQIQQLTTAIGRNIQLELRLTYYAEENPELYKQASRFFHAGTGTRQKATVIKLKFNREGIEWDQWSRVTCHKVGQWLMLAMADVTGWIERATDRTSGGRKTKTRICYSREFLQHRDTILAAAEQLAFCQWPMLCPPIEWSNDHNGGYLSEQIRRVNPLIRKTGPLGTRKQGDIPLAMLNNLQGQAYKVNPEVLDIANHCYESNVTVGKFIRHAPLPVPPSPGEDCTEDQLTAYKRARREAEDFNAQISQKNWRTTEVMYVARKYADEASFWMPASFDYRGRVYFLNTALNPQGTDFDKALLYFAEEGPVNEWWLSFHVATTYGLDKETMVNRVQWARDNHELIDRIASDPVRHTEWHDADEPWCFLAACLEYKACVIDGTKQTSGLPIGIDATCSGLQHLAAMTRCGRTAALVNVTPTDKPADAYKTVAQASLKHLPKEQHEWITRKVTKRPVMCTPYGVTMSSARGYIRDQLVKDGHKEDLRSPGVLNGIVKAIFNEAIPEVIPGPVQVMAWLKRSAGQIIDRGDSTITWTTPSGFEVVQDLKKSKTYEVKTRIMGGARIKLQVGDGFTDEPDRDHHKSALAPNVVHSNDASLLHLTFAFWDKPFTVIHDCVLGRSCDMDQMGSDIRLHFAEMYKADVMQDWADQVGVELPVDLIKNTLDIDSVNQSLYFFS
modifications: Syn5 RNAP-NP
notes: same amino acids as wild-type
For the molecule B1, in series [1], the “enzymatic activity versus wild-type” value is “same enzymatic activity as the wild-type Syn5 RNAP; also recorded: comparable enzymatic activity”. Moreover, the “toxicity to host cells” value in the series on E. coli BL21 (DE3) was “less toxic to host cells”.

B2: Syn5 RNA polymerase Y564F: Syn5 RNA polymerase Y564F mutant for the incorporation of 2′-F-dNTPs (protein)
chain: B1 chain with Y564F
modifications: Amino acid sequence of a cyanophage Syn5 RNAP
notes: Syn5 RNA polymerase Y564F mutant for the incorporation of 2′-F-dNTPs
On to B2, for which the “substrate preference 2′-F-dC/UTP versus rC/UTP” value in series [2] (Mg buffer, 37° C.) was “prefers 2′-F-dCTP and 2′-F-dUTP to canonical rCTP and rUTP”. Further, the “synthesis of long 2′-F RNA” value in series [2] (low enzyme concentration) is “stably synthesizes long RNA containing 2′-F-dCMP and 2′-F-dUMP”. The “transcript with all four 2′-F-dNMPs” value in series [2] (template starting with C) was “Full-length transcript including all four 2′-F-dNMPs was synthesized”. In addition, the “discrimination to 2′-F-dATP and 2′-F-dGTP” value in series [2] (versus wild type) is “reduced”.

The record behind these values is patent US11066655B2, “RNA polymerase, methods of purification and methods of use” (President and Fellows of Harvard College, priority 2013, dated 2021).
